# Measured values published in patent publication US20040253247A1.
# T1: rat albumin (rat), P02770
# T1 chain: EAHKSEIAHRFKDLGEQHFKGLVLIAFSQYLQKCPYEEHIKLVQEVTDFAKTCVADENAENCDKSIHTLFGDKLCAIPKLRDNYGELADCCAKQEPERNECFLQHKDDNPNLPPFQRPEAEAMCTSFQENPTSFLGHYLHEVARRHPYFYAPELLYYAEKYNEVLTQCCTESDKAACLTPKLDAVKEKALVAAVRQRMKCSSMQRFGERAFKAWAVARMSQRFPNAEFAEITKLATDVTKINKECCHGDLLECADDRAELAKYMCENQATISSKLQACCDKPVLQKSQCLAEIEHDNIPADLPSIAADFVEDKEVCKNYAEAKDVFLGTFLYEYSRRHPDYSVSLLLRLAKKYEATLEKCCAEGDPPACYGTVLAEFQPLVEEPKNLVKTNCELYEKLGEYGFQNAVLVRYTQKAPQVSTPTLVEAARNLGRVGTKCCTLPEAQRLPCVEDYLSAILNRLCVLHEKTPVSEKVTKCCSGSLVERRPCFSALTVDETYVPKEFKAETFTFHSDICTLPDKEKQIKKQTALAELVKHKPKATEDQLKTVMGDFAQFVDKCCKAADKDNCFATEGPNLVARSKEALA
# T2: rabbit albumin (rabbit), P49065
# T2 chain: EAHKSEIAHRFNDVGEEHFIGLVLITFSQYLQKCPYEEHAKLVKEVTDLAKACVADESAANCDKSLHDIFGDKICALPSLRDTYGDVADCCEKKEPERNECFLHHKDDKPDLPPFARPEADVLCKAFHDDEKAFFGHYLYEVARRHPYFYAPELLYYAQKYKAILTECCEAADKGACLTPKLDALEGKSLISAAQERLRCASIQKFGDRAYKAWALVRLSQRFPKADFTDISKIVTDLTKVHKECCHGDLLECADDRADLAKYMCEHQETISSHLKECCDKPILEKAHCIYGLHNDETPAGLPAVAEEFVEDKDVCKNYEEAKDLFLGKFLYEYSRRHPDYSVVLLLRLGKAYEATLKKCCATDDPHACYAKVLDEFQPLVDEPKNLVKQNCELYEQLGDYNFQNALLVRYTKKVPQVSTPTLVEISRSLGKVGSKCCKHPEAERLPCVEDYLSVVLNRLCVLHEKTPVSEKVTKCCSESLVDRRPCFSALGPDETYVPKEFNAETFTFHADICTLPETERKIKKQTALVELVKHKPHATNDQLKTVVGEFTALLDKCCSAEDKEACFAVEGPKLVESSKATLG
# Assays:
# Experiment in all cases: SA08b binding assay: competition with biotinylated SA08b for immobilized albumin
# [1] = target: T1, rat albumin (rat), P02770
# [2] = target: mouse albumin (mouse), P07724
# Chain of mouse albumin (mouse), P07724 (P07724 25-608 limits assumed): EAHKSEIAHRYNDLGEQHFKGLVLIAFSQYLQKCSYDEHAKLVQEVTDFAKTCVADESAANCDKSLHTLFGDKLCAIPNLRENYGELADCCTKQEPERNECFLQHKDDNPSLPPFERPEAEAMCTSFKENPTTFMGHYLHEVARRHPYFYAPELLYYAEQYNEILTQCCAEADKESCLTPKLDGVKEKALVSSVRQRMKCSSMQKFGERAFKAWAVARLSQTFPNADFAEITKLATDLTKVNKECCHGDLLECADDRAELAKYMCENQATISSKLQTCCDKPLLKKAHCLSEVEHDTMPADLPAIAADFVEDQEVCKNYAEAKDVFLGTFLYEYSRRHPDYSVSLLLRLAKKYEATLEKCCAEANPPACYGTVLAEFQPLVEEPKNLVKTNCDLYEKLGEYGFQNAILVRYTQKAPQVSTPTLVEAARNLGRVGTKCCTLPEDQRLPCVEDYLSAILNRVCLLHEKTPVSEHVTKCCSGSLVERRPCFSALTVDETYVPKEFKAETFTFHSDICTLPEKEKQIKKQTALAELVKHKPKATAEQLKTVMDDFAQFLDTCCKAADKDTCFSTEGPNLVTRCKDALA
# [3] = target: T2, rabbit albumin (rabbit), P49065
Binder,IC50 [1],IC50 [2],IC50 [3]
RLMEDICLPRWGCLWEDD (modifications not checked) [SA10],77 nM,4 nM,86 nM
RLMEDICLARWGCLWEDD (modifications not checked) [SA13],2480 nM,188 nM,3200 nM
